Consider five molecules from patent publication US20220119540A1 (NANJING GENSCRIPT BIOTECH, published 2022).

Numbering of substitutions follows the chain as printed.

For experiment [1], the target named is OX40 on a functional cell line overexpressing OX40 (UniProt P43489). Put plainly: cell-based or functional assay.
Experiment [2] concerns the target T1, OX40 on a functional cell line overexpressing OX40 (UniProt P43489 29-277, limits assumed).
T1 sequence (looked up): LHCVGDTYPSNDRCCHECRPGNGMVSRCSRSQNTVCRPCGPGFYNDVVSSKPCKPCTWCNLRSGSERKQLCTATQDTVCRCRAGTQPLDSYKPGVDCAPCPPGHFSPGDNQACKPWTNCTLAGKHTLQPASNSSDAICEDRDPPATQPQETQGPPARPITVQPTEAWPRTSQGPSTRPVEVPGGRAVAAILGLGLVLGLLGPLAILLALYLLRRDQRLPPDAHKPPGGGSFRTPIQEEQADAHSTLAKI
Nature of the experiment: cell-based or functional assay.

The target in experiment [3] is T2, Recombinant human OX40-His protein (human, UniProt P43489 29-214, limits assumed).
T2 construct: Recombinant antigen protein; also called recombinant human OX-40 protein; human OX-40 protein; not shown: His tag
T2 sequence (looked up): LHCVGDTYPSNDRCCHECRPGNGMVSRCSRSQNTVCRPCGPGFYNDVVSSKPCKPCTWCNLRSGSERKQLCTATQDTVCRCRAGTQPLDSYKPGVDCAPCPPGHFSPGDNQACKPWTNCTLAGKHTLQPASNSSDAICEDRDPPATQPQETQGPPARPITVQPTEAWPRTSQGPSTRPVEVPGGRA
Put plainly: ELISA, plate coated with recombinant human OX-40 protein, antibody titrated. As to the method:
Recombinant human OX-40 protein and recombinant monkey OX-40 protein were respectively used to detect the cross-recognition ability of humanized monoclonal antibodies for human/monkey OX-40 protein.
The ELISA plate (Nunc) was coated with 100 μl/well of […] recombinant OX40-His protein in PBS at 4° C. overnight. The plate was washed with PBS-T (0.05% Tween) and blocked with 200 μl/well of PBST containing 1% BSA at 37° C. for 0.5 hr. Then the blocking buffer was discarded, 100 μl of 1000 ng/ml purified antibody was added to the first well, 3-fold serial dilutions were made, and a total of 11 test concentration gradients were given. Then the system was incubated for 1 hr at room temperature. The plate was washed three times with PBST and incubated with 100 μl/well of horseradish peroxidase-conjugated goat anti-human Fab fragment-IgG (Fab-specific) (GenScript) at 37° C. for 0.5 hr. The plate was washed 5 times with PBST, and then a TMB developing solution (GenScript) was added and incubated at room temperature for 15 min in the dark. The reaction was terminated by adding 50 μl of 1 M HCl stop solution (Sigma). The plate was read at 450 nm on a microplate reader.
For orientation: An ELISA detects its analyte on a solid surface through an enzyme-linked reagent.

Experiment [4] concerns the target T3, Recombinant monkey OX-40 protein (monkey).
T3 chain: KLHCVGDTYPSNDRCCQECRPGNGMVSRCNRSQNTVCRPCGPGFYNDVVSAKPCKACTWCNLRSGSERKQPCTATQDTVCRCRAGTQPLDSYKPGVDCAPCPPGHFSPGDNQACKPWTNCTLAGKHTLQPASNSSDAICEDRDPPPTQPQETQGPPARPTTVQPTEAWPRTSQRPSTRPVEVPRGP
Put plainly: ELISA, plate coated with recombinant monkey OX-40 protein, antibody titrated.

For experiment [5], the target named is T2, Recombinant human OX40-His protein. Nature of the experiment: SPR (Biacore 8K), OX40-HIS coupled to chip, antibody as analyte, 1:1 binding model. As to the method:
The chip surface was equilibrated with HBS-EP buffer at a flow rate of 10 μl/min for 5 min, and then a 1:1 mixture of “NHS+EDC” was injected at a flow rate of 10 μl/min for 100 sec to activate the chip. The antigen protein (OX40-HIS) diluted in 10 mM sodium acetate buffer was injected for about 180 sec at a flow rate of 10 μl/min for coupling, and finally ethanolamine was injected for 200 sec at a flow rate of 10 μl/min to block the surface.
Three pre-cycles were performed with the HBS-EP buffer as a sample to balance the chip to stabilize the baseline. A low concentration of antibody was injected at a flow rate of 30 μl/min for 200 sec, to allow the antigen to bind to the antibody, and then the buffer was injected at a flow rate of 30 μl/min for 400 sec for dissociation. 10 mM Gly-HCl pH2.0 was injected three times each for 30 sec at a flow rate of 30 μl/min for regeneration, to complete one cycle.
The antibody concentration was changed to carry out the cycle for measurement at a next gradient concentration until all gradient concentrations (2.5 nM, 5 nM, 10 nM, 20 nM, 40 nM, and […]) and the replicate (such as 20 nM) were tested. The experimental data was double subtracted (minus the background values of the control channel and zero concentration), and fitted to the “1:1 binding” model in the Biacore 8K evaluation software. Biacore 8K was used to determine the affinity of the antibody to the OX40-HIS recombinant protein.
(SPR reads the build-up and loss of mass on a sensor chip optically.)

For experiment [6] the target is unchanged. Put plainly: kinetic ranking (RU, 1:1 binding model), antibody product as ligand, OX40-His as analyte.

Turning to “OX40 ligand (from UniProt P23510 51-183)”, in experiment [1], the IL-8 secretion by OX40 overexpressing functional cell line, EC50 was determined as 2.54 nM; the IL-8 secretion by OX40 overexpressing functional cell line, best-fit value Bottom is 4130; the IL-8 secretion by OX40 overexpressing functional cell line, best-fit value LogEC50 came to 0.404; the IL-8 secretion by OX40 overexpressing functional cell line, best-fit value Top turned out to be 19900.

B1: AH02919 humanized anti-human OX40 monoclonal antibody (recombinant human IgG1/kappa) (antibody, V domains shown)
VH: QVQLVQSGAEVKKPGASVKVSCKASGYTFTDYSMHWVKQAPGQGLEWMGWISTETGEPTYADDFKGRVTITRDTSASTAYLEISSLRSEDTAVYFCARVRPWYLAVWGQGTLVTVSS
VL: DIQMTQSPSSLSASVGDRVTITCRASQDISNYLNWYQQKPGKAVKLLIYYTSRLYSGVPSRFSGSGSGTDYTLTISSLQPEDIATYYCQQANTLPLTFGGGTKLEIK
Take B1: in experiment [2], the “IL-8 secretion by OX40 overexpressing functional cell line, EC50” value was 1.03 nM; the “IL-8 secretion by OX40 overexpressing functional cell line, best-fit value Bottom” value (from here on “IL-8 secretion … best-fit value Bottom”) is 3060; the “IL-8 secretion by OX40 overexpressing functional cell line, best-fit value LogEC50” value (“IL-8 secretion … best-fit value LogEC50” for short) stood at 0.0123; the “IL-8 secretion by OX40 overexpressing functional cell line, best-fit value Top” value (from here on “IL-8 secretion … best-fit value Top”) turned out to be 19000. Also, the EC50 in experiment [3] amounted to 0.0143 µg/mL. For the same molecule, the EC50 in experiment [4] came out at 0.0391 µg/mL. Besides, in experiment [5], the Kd was 2.09 nM, the koff came out at 0.000776 s⁻¹ and the kon was 372000 M⁻¹ s⁻¹.

B2: AH02921 humanized anti-human OX40 monoclonal antibody (recombinant human IgG1/kappa) (antibody, V domains shown)
VH: B1 VH with A9P, K38R, V68F, R72L, A105T
VL: B1 VL with V44P, Y87F
On to B2, for which, in experiment [2], the “IL-8 secretion by OX40 overexpressing functional cell line, EC50” value worked out at 2.14 nM; the “IL-8 secretion … best-fit value Bottom” value stood at 4420; the “IL-8 secretion … best-fit value LogEC50” value worked out at 0.329; the “IL-8 secretion … best-fit value Top” value was 19500. Further, in experiment [3], the EC50 came out at 0.0161 µg/mL. Besides, in experiment [4], the EC50 was 0.0376 µg/mL. In experiment [5], the Kd is 1.34 nM, the dissociation rate constant (koff) worked out at 0.000439 s⁻¹ and the kon was 327000 M⁻¹ s⁻¹.

B3: AH02923 humanized anti-human OX40 monoclonal antibody (recombinant human IgG1/kappa) (antibody, V domains shown)
VH: B1 VH with K38R, V68F, I70F, R72L, I83L, F95Y
VL: B1 VL with L73F
As to B3, in experiment [2], the “IL-8 secretion by OX40 overexpressing functional cell line, EC50” value stood at 1.55 nM; the “IL-8 secretion … best-fit value Bottom” value stood at 3350; the “IL-8 secretion … best-fit value LogEC50” value stood at 0.191; the “IL-8 secretion … best-fit value Top” value came out at 21000. For the same molecule, in experiment [3], the EC50 came out at 0.0107 µg/mL. Also, the EC50 in experiment [4] was 0.0303 µg/mL. Further, in experiment [5], the Kd is 2.15 nM, the off-rate (koff) was 0.000616 s⁻¹ and the kon is 287000 M⁻¹ s⁻¹.

B4: Chimeric antibody, as ranked with the prokaryotically expressed antibody products (back-mutation screening) (Fab, V domains shown)
VH: QIQLVQSGPELKKPGETVKISCKASGYTFTDYSMHWVKQAPGKGLKWMGWISTETGEPTYADDFKGRFAFSLETSASTAYLQIKNLKNEDTASYFCARVRPWYLAVWGAGTTVTVSS
VL: DIQMTQTTSSLSASLGDRVTISCRASQDISNYLNWYQQKPDGTVKLLIYYTSRLYSGVPSRFSGSGSGADYSLTVSNLEQEDIATYFCQQANTLPLTFGAGTKLELK
Consider B4, for which, in experiment [6], the Kd came to 11.2 nM, the koff was found to be 0.00487 s⁻¹ and the on-rate constant (kon) was 434000 M⁻¹ s⁻¹.

The EC50 is the concentration needed to bring the measured effect to its halfway point. Broadly, the Kd is the concentration at which binding is half-saturated. As a reminder, the koff is the first-order rate constant of dissociation. What is called kon is the rate constant with which the complex forms.
